Experimental data reported in paper PMC6168700 (2018).

T1: Full-length Rok1, His-tagged (Saccharomyces cerevisiae (strain ATCC …, UniProt P45818))
T1 chain: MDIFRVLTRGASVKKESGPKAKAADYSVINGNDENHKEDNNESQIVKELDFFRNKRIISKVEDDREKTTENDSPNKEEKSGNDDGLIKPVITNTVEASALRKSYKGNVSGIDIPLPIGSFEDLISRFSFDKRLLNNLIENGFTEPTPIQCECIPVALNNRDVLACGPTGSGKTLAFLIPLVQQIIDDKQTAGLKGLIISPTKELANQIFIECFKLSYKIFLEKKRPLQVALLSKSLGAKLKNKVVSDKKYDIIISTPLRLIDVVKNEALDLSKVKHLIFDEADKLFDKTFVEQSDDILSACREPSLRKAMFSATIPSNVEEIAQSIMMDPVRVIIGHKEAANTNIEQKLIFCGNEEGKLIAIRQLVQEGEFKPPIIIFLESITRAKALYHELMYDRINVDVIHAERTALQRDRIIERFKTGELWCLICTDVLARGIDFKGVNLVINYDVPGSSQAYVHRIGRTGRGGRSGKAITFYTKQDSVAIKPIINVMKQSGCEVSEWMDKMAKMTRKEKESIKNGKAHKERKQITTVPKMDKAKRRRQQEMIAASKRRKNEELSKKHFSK

B1: Rrp5 (1083–1343), the last 3 S1 domains only (protein)
chain: STIKVGDELPGRVLKIAEKYVLLDLGNKVTGISFITDALNDFSLTLKEAFEDKINNVIPTTVLSVDEQNKKIELSLRPATAKTRSIKSHEDLKQGEIVDGIVKNVNDKGIFVYLSRKVEAFVPVSKLSDSYLKEWKKFYKPMQYVLGKVVTCDEDSRISLTLRESEINGDLKVLKTYSDIKAGDVFEGTIKSVTDFGVFVKLDNTVNVTGLAHITEIADKKPEDLSALFGVGDRVKAIVLKTNPEKKQISLSLKASHFSKE
B2: Rrp5 (1400–1729), the TPR region alone (protein)
chain: GLSLSAGFDWTASILDQAQEEEESDQDQEDFTENKKHKHKRRKENVVQDKTIDINTRAPESVADFERLLIGNPNSSVVWMNYMAFQLQLSEIEKARELAERALKTINFREEAEKLNIWIAMLNLENTFGTEETLEEVFSRACQYMDSYTIHTKLLGIYEISEKFDKAAELFKATAKKFGGEKVSIWVSWGDFLISHNEEQEARTILGNALKALPKRNHIEVVRKFAQLEFAKGDPERGRSLFEGLVADAPKRIDLWNVYVDQEVKAKDKKKVEDLFERIITKKITRKQAKFFFNKWLQFEESEGDEKTIEYVKAKATEYVASHESQKADE

Key:
[1] = target: T2, Full-length Has1, His-tagged (Saccharomyces cerevisiae (strain ATCC …, UniProt Q03532)); assay: Ni-NTA pull-down, Coomassie SDS-PAGE
T2 sequence (Q03532 whole entry): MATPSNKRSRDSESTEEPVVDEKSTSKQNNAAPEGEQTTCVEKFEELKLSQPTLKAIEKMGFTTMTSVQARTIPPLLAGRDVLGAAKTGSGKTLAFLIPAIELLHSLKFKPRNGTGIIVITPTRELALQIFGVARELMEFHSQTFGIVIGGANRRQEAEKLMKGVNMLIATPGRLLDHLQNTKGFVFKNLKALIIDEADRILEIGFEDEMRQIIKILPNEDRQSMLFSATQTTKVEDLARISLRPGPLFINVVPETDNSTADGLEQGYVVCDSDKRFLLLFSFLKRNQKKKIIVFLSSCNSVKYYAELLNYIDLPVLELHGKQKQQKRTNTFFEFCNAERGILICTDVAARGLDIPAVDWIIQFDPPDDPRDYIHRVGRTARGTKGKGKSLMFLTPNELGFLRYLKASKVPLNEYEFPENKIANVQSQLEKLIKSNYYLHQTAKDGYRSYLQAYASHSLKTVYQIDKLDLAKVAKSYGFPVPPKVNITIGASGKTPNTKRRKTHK

[2] = target: T1, Full-length Rok1, His-tagged; assay: Ni-NTA pull-down, Coomassie SDS-PAGE; 2 mM ATP present
[3] = target: T2, Full-length Has1, His-tagged; assay: Ni-NTA pull-down and co-expression, SDS-PAGE

Binder	binding result [1]	binding result [2]	binding result [3]
B1	no binding	no binding	–
B2	–	–	no binding
